Test results published in publication PMC3796546.

Biological target: T1, Smt3 (SUMO), endogenous, Q12306
T1 chain: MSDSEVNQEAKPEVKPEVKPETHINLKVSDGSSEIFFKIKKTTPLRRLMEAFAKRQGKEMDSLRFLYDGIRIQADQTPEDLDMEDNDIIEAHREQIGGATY
Test: co-IP with mass spectrometry
Settings: chain shown with the change, cross-linked in vivo with formaldehyde, p value 0.04637

ratio to parent: > 11
other: sum (parent: 0): 11
B1: N-terminal 3xHA-tagged wild-type Irc20, Q06554 C1239A (protein)
chain: MSAVGALLAREYNVTAEKCDFFLENGSFDSVIAALPALNQEQETVTQKVSKNGKELINVASVNIEIPERISLSNNGRQLFKFIVDIEILPCENDNEATLVVSSDSVSLFQIGFKMENNSKIAVDKQLPLILDICAHKNQERALRNQLENRKSLERKPSRKRRKKNSNVNDPEKLLKSRIHELSLSYKDFECSPVVFRYNDSSLTWVLSFNLKLKFLNNKFNRFSVEANQILDLTFSNRDENEFERYHKHSHIHSNFIQKQFISQILEYSKDRLSKIKPFLPQSIPDLKVNLLPFQRESVEWMLIKEGHGNSLSDTPTVIDEVGLIDFMNEYYAYGYELIARSPDEVGPSLLWNKLTGYILTTEDAAHLYNQYRKERLSGDYPVCAKGVLAEEMGLGKTIEILSLILLNRRKLKDSEATFIDDENRTITKTKTTLIICPNAILKQWLEEIELHANSLKWYTYRGYNEIMKDCKTVDEAVQQLCQYDIIVTSYNIIATEVHHAEFNRSIRSRRLKSPKYDYSSPLALMQFYRIILDEVQMLRSSSTYSAKCTSLLHRIHTWGVSGTPIQNIYNFRMIMSYLKLHPFCDEVDFIRTLQEEIKLRNEAKDYTSNDFVCQLKGVRFSIKDCMNIFYRYDLCIRHSKANVASQIHIPRQHNFIIPLEFAPIEWDNYLNLWNNFLELSGYNSDGSGSPRVSNAFLNEWLSRLRYICCHALFPEILSTRQKRLHGHLSRISNIDDILISMRMDAFDSLIGYYRERFHLSIKQAQYELEISNTPAKALESFIKIRDDLMIHIRQKFNVEDPFDKSLNLSEDEDEHMDERFGEKETSSGDESDREINGAKNHDNHNNDGMLSNHLKKKGLRAMMNLLHDCYFFLGSVYYNLGTRKLEEADDKHRKEKTEEVVYSDVFPKNELEEIEENRLLEQENYANAEILRKSILSSEARKVDMTIKMARTKFAPMTSNIPLRLINIEFDHKNDYSSNLAVSRCFKSLSKLIEGLNEQTKNFNELLDELLIIIYEPVHRTEDDDSTNKIIGNEEYSTSIDSQDKIFSLLGCLEIILQNRDNILTSESEVKIPKHLVPEGSIISKYQKQLLNSLRLISGTPLRTVFDELKNSRIVRRISSSNESESTIQNFEDYLLQYEVESKSLFKYNKQVRESLKILGSIYNAKTEYYSQLQRISDSLVSLHSLSAPQLSHLIRTINKSLGGTLDAKINNIESRLIYLKNLSRLKDTLNDNQILSASICLGEVEIGAIIKCGHYFCKSCILTWLRAHSKCPICKGFCSISEVYNFKFKNSTEKREKEIQEPRREGADSSQDNSNENSIISNMSEVEKLFGNKYEQFHQINEVHQIHIKESFGAKIDFVIKLISYLRLKSEQENADPPQVILYSQKTEYLKVIGKVLKLYHIEHLACLSNTANVGETINNFKRQPSVTCLLLNVKTLGAGLNLINAKHIFLLDPILNNSDELQAMGRNNRIGQDEETFVWNFMIRNTVEENILRYKCILEERKRKEKSKKGDKYDEAQDETDNEESDDAKFEISVVDQEVSNEHLWNCFFHGSD
